Source: patent US20140200179A1
Values joined by “and” are separate entries in the source; they are usually repeats but may differ in a detail not shown here. Equal entries are not always repeated.

Biological target: Fz-CRD (biotinylated Fz5- and Fz8-CRD)
Experiment: SPR, biotinylated Fz5- and Fz8-CRD on the chip, mini-Xwnt8 flowed over at several concentrations

Which Kd does the source give for “mini-XWnt8 (amino acid residues 248-338) (from UniProt P28026) (ligand)” here?
Its Kd is 1000 nM and 2000 nM.
